Laboratory results as given in publication PMC3601957, “Structural Basis of Rap Phosphatase Inhibition by Phr Peptides” (PLoS Biology, 2013).
Numbering of substitutions follows the chain as printed.

Assays:
RapA = conditions: cited from earlier work
Description: The RNPP family of Gram-positive quorum sensors presents a characteristic C-terminal TPR domain with seven TPR repeats for the structurally known Raps (RapF and RapH) (Figures 1E and S3),[31]. The RapF TPR domain folded in a large superhelix to generate a pseudo circular structure that was closed in a wide channel (8,588 Å^3, calculated by the CASTp software) by the interaction of the terminal part of TPR7 (and the following C-terminal tail) with the initial part of TPR1 (Figure 1). As a channel, the generated ring-like structure was open on both faces (Figures S4, upper panel) ... || Peptide anchoring should be independent of its sequence. Thus, it is primarily mediated by interactions with the peptide main chain. These interactions are mainly polar in nature and involve the side chain hydrogen bonds and salt bridges of Tyr66, Tyr152, Gln183, Arg223, Asn227, Gln263, and Asp338 with the PhrF backbone (Figure 2). Additionally, the conserved Arg at position 2 of the Phr peptides is anchored by a salt bridge with the side chain of a conserved Asp residue (Asp194 in RapF) from TPR3 (Figure 2). […] The conserved asparagine in the RNPP family (Asn227 in RapF) interacts with the PhrF backbone and supports the key role of this residue in peptide accommodation.

RapF [1] = target: T1, RapF (Bacillus subtilis, UniProt P71002); test: Limited proteolysis with trypsin, wild-type RapF; type: biochemical, B. subtilis; conditions: wild-type RapF 1.5 mg/ml, peptide 1 mM, trypsin 1:10,000, 37°C, 0-90 min, SDS-PAGE / native PAGE (60 min); PhrA and PhrE: unpublished data
T1 construct: 6xHis (N, cleaved yes); made in house; host or cells: Escherichia coli BL21 RIL
T1 sequence (P71002 whole entry, looked up): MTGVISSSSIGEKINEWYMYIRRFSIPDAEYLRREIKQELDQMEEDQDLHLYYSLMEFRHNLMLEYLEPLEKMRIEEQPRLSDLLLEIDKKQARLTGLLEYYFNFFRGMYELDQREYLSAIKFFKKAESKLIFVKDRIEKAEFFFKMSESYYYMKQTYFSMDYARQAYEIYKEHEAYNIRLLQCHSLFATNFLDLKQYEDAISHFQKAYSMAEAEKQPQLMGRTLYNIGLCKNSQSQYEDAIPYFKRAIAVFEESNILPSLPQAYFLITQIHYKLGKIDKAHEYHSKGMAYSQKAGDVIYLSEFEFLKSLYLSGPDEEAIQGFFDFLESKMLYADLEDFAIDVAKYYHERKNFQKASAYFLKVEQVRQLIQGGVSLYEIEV
Experimental: Wild-type RapF and mutant variants (RapF^E303K, RapF^E303A, RapF^N227A, and RapF^D194A) at a concentration of 1.5 mg/ml were pre-incubated in lysis buffer (10 mM Tris-HCl [pH 8], 0.1 mM EDTA, 1 mM β-mercaptoethanol, 100 mM NaCl, 5% glycerol, and 5 mM CaCl2) in the presence (1 mM) or absence of inhibitory peptides at room temperature for 30 min. The protein was subjected to proteolysis by trypsin (1∶10,000) at 37°C and aliquots of the reaction mixture were taken after 0, 10, 30, and 90 min of incubation, mixed with SDS–PAGE loading buffer and immediately boiled to stop the enzyme reaction. Samples were then separated on 12% acrylamide SDS–PAGE and stained with Coomassie brilliant blue. For the peptide titration experiments, RapF was incubated in lysis buffer with increasing concentrations of PhrF at room temperature for 30 min and subjected to limited proteolysis with trypsin(1∶10,000) at 37°C for 60 min. The reactions were stopped SDS–PAGE loading buffer and analyzed by SDS–PAGE.

RapF [2] = target: T1, RapF; test: Thermal-shift peptide binding assay, wild-type RapF; set-up: species or system B. subtilis; conditions: peptide 1 mM, PhrA and PhrE: unpublished data
Experimental: The thermal-shift assay was conducted in a 7500 Fast Real-time PCR System (Applied Biosystems). Final melt conditions were 20 mM Tris-HCl (pH 8), 100 mM NaCl, 20 µM RapF, and 5× SYPRO Orange (Sigma-Aldrich). The final concentration of the inhibitory peptides was 1 mM when they were present. The assays were carried out at a final volume of 20 µl in 96-well PCR plates. Samples were heated at 1°C/min. Fluorescent intensity was plotted versus temperature and integrated with the GraphPad Prism 4 software using a Boltzmann model to calculate melting temperatures.

RapF [3] = target: T2, RapF (B. subtilis, UniProt P71002 1-381); test: thermal-shift assay (SYPRO Orange); 20 µM RapF, peptides 1 mM; 20 mM Tris-HCl pH 8, 100 mM NaCl; heated at 1°C/min; conditions: both partners purified
T2 construct: RapF of Bacillus subtilis, amplified from genomic DNA and cloned in pPROEX-HTa; The text speaks of residues up to Val381, which fits the whole protein; also called wild-type RapF; native RapF; source: E. coli BL21 RIL, purified (HisTrap, TEV digestion, Superdex 200); not shown: His6, N-terminal, cleaved
T2 sequence: T1 sequence (P71002 whole entry, looked up)

RapF^D194A = target: T3, RapF^D194A (B. subtilis, UniProt P71002 1-381, D194A)
T3 sequence: T1 sequence (P71002 whole entry, looked up) with D194A

RapF^N227A = target: T4, RapF^N227A (B. subtilis, UniProt P71002 1-381, N227A)
T4 sequence: T1 sequence (P71002 whole entry, looked up) with N227A

RapF [4] = target: T2, RapF; test: native gel or EMSA; titration on 8% native gel; 20 µg protein, peptide 50 nM to 1.2 mM in 20 µl buffer A, 15 min at room temperature; midpoint of the transition taken as the apparent Kd; conditions: both partners purified
RapF^E303A = target: T5, RapF^E303A (B. subtilis, UniProt P71002 1-381, E303A); test: as above; conditions: both partners purified
T5 construct: RapF of Bacillus subtilis with Glu303 changed to Ala, made from pPROEX-RapF by site-directed mutagenesis; Same construct as m1 with the point mutation; also called RapF Glu303Ala; source: E. coli BL21 RIL, purified as native RapF; not shown: His6, N-terminal, cleaved
T5 sequence: T1 sequence (P71002 whole entry, looked up) with E303A

RapF^E303K = target: T6, RapF^E303K (B. subtilis, UniProt P71002 1-381, E303K); test: as above; conditions: both partners purified
T6 construct: RapF of Bacillus subtilis with Glu303 changed to Lys, made from pPROEX-RapF by site-directed mutagenesis; Same construct as m1 with the point mutation; also called RapF Glu303Lys; source: E. coli BL21 RIL, purified as native RapF; not shown: His6, N-terminal, cleaved
T6 sequence: T1 sequence (P71002 whole entry, looked up) with E303K

## PhrA: PhrA, inhibitor peptide of RapA; non RapF partner peptide (ARNQT)
RapA; RapA Asp192 and His260 mutants, Spo0F∼P dephosphorylation unaffected
  sensitivity of RapA Asp192 and His260 mutants to peptide: insensitive to the inhibitory activity of PhrA
RapA; RapA Tyr224Ala or His260Ala, no effect on enzymatic activity
  binding to RapA Tyr224 or His260 to alanine mutants: completely abolishes the capacity to bind PhrA
RapA; RapA mutant, intact capacity to bind Spo0F
  binding to RapA mutant, Asn to Ala (position of RapF Asn227): impaired capacity to bind the PhrA peptide
RapA
  requirement for inhibition of RapA: requirement of the free terminal carboxylate group
RapA; functional RapA variants
  sensitivity of RapA mutants at positions of RapF Tyr226 and Leu230: completely insensitive to the PhrA peptide
RapF [1]
  protection of RapF against trypsin digestion: did not protect against trypsin attack
RapF [2]
  thermal stabilization by peptide: presented identical melting transitions to those observed in the absence of peptide

## PhrE: PhrE, non RapF partner peptide (SRNVT)
RapF [1]
  protection of RapF against trypsin digestion: did not protect against trypsin attack
RapF [2]
  thermal stabilization by peptide: presented identical melting transitions to those observed in the absence of peptide

B1: PhrF (peptide)
peptide: QRGMI
notes: mature active form of the PhrF precursor; The purchase from Genescript is stated for the crystallisation; no other source is named; also called PhrF peptide; source: bought: Genescript
RapF [3]
  increment in the melting temperature of RapF with PhrF: ~20 °C
RapF^D194A
  Kd: > 1200 µM
RapF^N227A
  Kd: > 1200 µM
RapF [4]
  Kd: 3.1 µM
RapF^E303A
  Kd: 29 µM
RapF^E303K
  Kd: 13.2 µM

B2: PhrC (peptide)
peptide: ERGMT
notes: mature active form of the PhrC precursor; also called PhrC peptide; RapC (PhrC) peptide
RapF^E303K
  Kd: 19.6 µM
